Molecular target: full length mesothelin (NM_005823) on target cells (human) (UniProt Q13421)
Experiment: cell-based or functional assay

Chain of full length mesothelin (NM_005823) on target cells (human) (Q13421 other isoform, or with tags, fused parts or gaps limits assumed): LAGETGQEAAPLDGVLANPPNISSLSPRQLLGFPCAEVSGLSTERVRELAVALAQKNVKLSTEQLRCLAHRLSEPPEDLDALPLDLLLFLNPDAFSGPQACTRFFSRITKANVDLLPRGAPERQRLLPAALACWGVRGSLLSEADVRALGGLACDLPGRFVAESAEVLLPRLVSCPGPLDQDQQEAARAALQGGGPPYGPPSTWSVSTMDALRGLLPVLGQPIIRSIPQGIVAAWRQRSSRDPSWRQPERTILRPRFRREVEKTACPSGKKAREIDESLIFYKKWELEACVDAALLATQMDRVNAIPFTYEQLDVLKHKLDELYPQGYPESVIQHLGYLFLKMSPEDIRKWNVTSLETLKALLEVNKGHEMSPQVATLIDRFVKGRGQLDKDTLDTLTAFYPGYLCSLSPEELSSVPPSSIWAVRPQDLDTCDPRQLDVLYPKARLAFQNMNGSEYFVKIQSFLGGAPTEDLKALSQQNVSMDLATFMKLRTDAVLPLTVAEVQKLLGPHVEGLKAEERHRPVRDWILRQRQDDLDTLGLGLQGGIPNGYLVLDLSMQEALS

tumor cell lysis (luciferase assay), E:T 1-to-1, patients 1, 2, 4 and 5: 50%
tumor cell lysis (luciferase assay), E:T 1-to-5, patients 4 and 5: 50%
tumor cell lysis (luciferase assay), E:T 5-to-1, patient 3: 35%
tumor cell lysis (luciferase assay), E:T 5-to-1, patients 1, 2, 4 and 5: 75 to 97%
B1: SD1 CD3ε-TFP (protein, part only; not given: linker and CD3 epsilon subunit, part only)
chain, part: EVQLVESGGGLVQPGGSLRLSCAASGGDWSANFMYWYRQAPGKQRELVARISGRGVVDYVESVKGRFTISRDNSKNTLYLQMNSLRAEDTAVYYCAVASYWGQGTLVTVSS

From US20220298478A1
